Measured values as given in the supplement of paper PMC10567573.
± gives the standard deviation.

Assay: protein stability index of a GFP-peptide fusion (GPS, HEK-293T) (PSI 1-6); higher = more stable
[1] = treatment: DMSO, c terminus: a fixed tail appended
[2] = treatment: MLN4924 1 uM, 8 h, c terminus: a fixed tail appended
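Further: 24-mer peptide tiles fused after GFP, lentivirally expressed, FACS-sorted into six equal bins by GFP/DsRed ratio, decoded by Illumina sequencing, PSI is the read-weighted mean bin number.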

| Sequence | protein stability index [1] | protein stability index [2] | protein stability index (treatment: DMSO, c terminus: native) | protein stability index (treatment: MLN4924 1 uM, 8 h, c terminus: native) |
| --- | --- | --- | --- | --- |
| GPAGPYLLSKKGALQSRAAQRHRG [PLEKHN1] | 4.16 ± 0.48 | 3.98 ± 0.21 |  |  |
| GPDVLETDGLQEVPLCSCRMETPK [EHMT1] | 4.16 ± 0.43 | 4.29 ± 0.29 |  |  |
| GPFDLMSRRVIAANNRILAERIAK [IMPA1] | 2.54 ± 0.39 | 3.46 ± 0.59 |  |  |
| GPHTISNQNNYRLLSCGKILTGCK [ACSBG2] | 3.21 ± 0.13 | 2.84 ± 0.62 |  |  |
| GPLGDQLHAQLRDLTSSSSDELSW [ELF3] | 4.04 ± 0.047 | 4.18 ± 0.29 |  |  |
| GPPVGPLSLGLATVDIQNPDITSS [WAS] | 4.68 ± 0.23 | 4.39 ± 0.24 |  |  |
| GPQLEGEKDWGLEGYVWRGSQLED [ZSWIM9] | 4.52 ± 0.23 | 4.45 ± 0.28 |  |  |
| GPWLEWEIMLQYCFPRLDINVSKG [PRIM1] | 2.4 ± 0.19 | 2.88 ± 0.94 |  |  |
| GREYPDAQGFAADVRLMFSNCYKY [BRD3] | 2.38 ± 0.21 | 2.59 ± 0.29 |  |  |
| GRIACANVLSDLYAMGITECDNML [SEPHS2] | 2.4 ± 0.41 | 2.43 ± 0.32 |  |  |
| GRQLEKVPEKRDSGMTEVERTYSA [SPATS1] | 5.22 ± 0.3 | 5.24 ± 0.4 |  |  |
| GRREGCDICAGKAGCPIVEEPLG [RPS21] |  |  | 4.03 ± 0.13 | 4.33 ± 0.3 |
| GRSNAPITAPTEVEVMDETNCQKV [CSNK1G3] | 5.55 ± 0.15 | 5.59 ± 0.13 |  |  |
| GRYAYVRGGGDPWTNGSGLALCQR [MCOLN1] | 2.56 ± 0.37 | 3.02 ± 0.2 |  |  |
| GSGAPSPLSKSSPATTVTSPNSTP [SNAP91] | 5.44 ± 0.16 | 5.4 ± 0.16 |  |  |
| GSGLSSRFEEPKGPPARQEDSKEL [CBY2] | 5.35 ± 0.27 | 5.5 ± 0.25 |  |  |
| GTDSAGPKTVPSHVFSELWDLSEA [ELOA2] | 3.95 ± 0.25 | 4.39 ± 0.38 |  |  |
| GTPMGTFAPLWEVFRVSSDKLALC [FCHO1] | 2.23 ± 0.63 | 2.17 ± 0.41 |  |  |
| GVIRMWADEGSRNSRFQMLFTSFQ [NETO1] | 2.34 ± 0.4 | 2.27 ± 0.28 |  |  |
| GVKFVGLFIILQVGLNTIADLWYL [POMT2] | 3.52 ± 0.1 | 2.9 ± 1.2 |  |  |
| GVSREEIEREVNILREIRHPNIIT [DAPK3] | 2.38 ± 0.42 |  |  |  |
| GYKEFFMKCQSYCEPPSYRPMHHE [CDC25A] | 2.49 ± 0.15 | 2.42 ± 0.34 |  |  |

| Sequence | protein stability index [1] | protein stability index [2] | protein stability index (treatment: DMSO, c terminus: native) | protein stability index (treatment: MLN4924 1 uM, 8 h, c terminus: native) |
| --- | --- | --- | --- | --- |
| GYRVSAALEEADKMFLRTREPALD [EID1] | 3.9 ± 0.27 | 3.89 ± 0.3 |  |  |
| HDAQVRLYKEELEQTYHAKLENAR [LMNB1] | 3.99 ± 0.34 | 4.13 ± 0.14 |  |  |
| HDTKDQSPSRAPGLRQRASNKVQD [HMOX1] | 5.58 ± 0.24 | 5.29 ± 0.14 |  |  |
| HEPPFHLDREIRLQRLSHSGSRVR [SCNN1D] | 4.27 ± 0.13 | 4.31 ± 0.21 |  |  |
| HESSGNPPLRVIVKDALFCSCLSD [RHOBTB3] | 3.11 ± 0.25 | 3.24 ± 0.12 |  |  |
| HGAHKAEKKLFECLTCGKSFRQGM [ZNF263] | 2.67 ± 0.27 | 2.78 ± 0.25 |  |  |
| HHLDEDEERERIERVRRIHIKRPD [KCTD10] | 5.09 ± 0.34 | 5.19 ± 0.076 |  |  |
| HKHVVQFYHYFEDKENIYILLEYC [PLK2] | 2.63 ± 0.43 | 2.37 ± 0.71 |  |  |
| HKLDLNTREWTQLKPNNLSCDLPE [KLHDC10] | 4.4 ± 0.12 | 4.41 ± 0.3 |  |  |
| HLLGIPHSVLQIRYSGKILKNNET [IQUB] | 2.77 ± 0.41 | 2.32 ± 0.38 |  |  |
| HLNETVKAPDIECVLRCSVLEIEQ [FEM1B] | 3.07 ± 0.49 | 3.13 ± 0.44 |  |  |
| HLYLLRGLPGSGKTTLARQLQHDF [N4BP2L1] | 2.35 ± 0.47 | 2.27 ± 0.29 |  |  |
| HNSINQSLDESVIYGPGNLSTNNN [SLC2A12] | 4.68 ± 0.34 | 4.7 ± 0.055 |  |  |
| HNYNILIATLRVALPSVMRFCCCV [MCOLN1] | 2.83 ± 0.59 | 2.9 ± 0.48 |  |  |
| HPVLHKEEKQHLERLNKEYQEIFQ [TRIM43] | 3.9 ± 0.47 | 4.06 ± 0.4 |  |  |
| HQKLEREARICRLLKHSNIVRLHD [CAMK2B] | 2.58 ± 0.17 | 2.66 ± 0.43 |  |  |
| HSCTCVLYTPSNEHFGIVPLEAMY [ALG2] | 2.43 ± 0.38 | 2.41 ± 0.22 |  |  |
| HTPSDTGVSFQAISSMADFWDFAQ [PKD2L1] | 2.85 ± 0.36 | 3.01 ± 0.35 |  |  |
| HVEEHFQLLARRMQVDKKRVYLAT [FUT8] | 2.32 ± 0.14 | 2.29 ± 0.45 |  |  |
| HVLIHNTLQQLQAALRLAPAPALP [SERTAD3] | 2.51 ± 0.47 | 2.55 ± 0.2 |  |  |
| HVPEGFDPTGPAGLGRPTPGLSQG [EHMT1] | 4.4 ± 0.27 | 4.51 ± 0.11 |  |  |
| HYRASEEEPEYGEEIKGYPGVQAP [CHGB] | 4.64 ± 0.23 | 5.04 ± 0.36 |  |  |

| Sequence | protein stability index [1] | protein stability index [2] | protein stability index (treatment: DMSO, c terminus: native) | protein stability index (treatment: MLN4924 1 uM, 8 h, c terminus: native) |
| --- | --- | --- | --- | --- |
| IAVKTLGIGKNVICDRTATPLDAF [GFOD1] | 2.43 ± 0.14 | 2.53 ± 0.17 |  |  |
| ICTQKCALNWTDIPVAMEHQPPYI [VPS39] | 2.25 ± 0.48 | 2.12 ± 0.11 |  |  |
| IDEIISLESSYNDEMLSYLPGGTT [TFE3] | 3.96 ± 0.16 | 3.88 ± 0.32 |  |  |
| IDYKTTTILLDGRRVKLQLWDTSG [RAB40B] | 2.42 ± 0.12 | 2.56 ± 0.24 |  |  |
| IEAAVQDRLNEQEGVPSVFNPPPS [FAF2] | 5.06 ± 0.17 | 5.04 ± 0.15 |  |  |
| IERSKIVSTMRCKTRQKSEKQMEE [PPEF2] | 4.5 ± 0.21 | 4.5 ± 0.1 |  |  |
| IEVFRRKRKMHLVFEYCDHTLLNE [CDKL4] | 2.54 ± 0.98 | 2.33 ± 0.14 |  |  |
| IFEPPVRNSGIIGGKYLGRTKVVK [EFHC1] | 3.42 ± 0.3 | 3.62 ± 0.28 |  |  |
| IFLNGNRERPLNVFCDMETDGGGW [TNXB] | 1.91 ± 0.48 | 2.67 ± 0.54 |  |  |
| IFRSKLKNRPSSEGSINKILSGLD [CDC14A] | 2.27 ± 0.32 | 2.69 ± 0.42 |  |  |
| IGPFGGFFASGFKRAFKIKDFANT [CDS2] | 2.32 ± 0.27 | 2.15 ± 0.4 |  |  |
| IGQVHEEFKQNIENVSVEMLLRKF [FCHO1] | 3.05 ± 0.3 | 3.32 ± 0.23 |  |  |
| IHFTLIQAFCCENDINILRVSNPG [GADD45A] | 3 ± 0.46 | 2.71 ± 0.45 |  |  |
| IIHEAGYSEEECKQYKAVVYSNTI [GNAI1] | 2.81 ± 0.04 | 2.77 ± 0.45 |  |  |
| IIVNLLWFIHLVFVVLAFLTGVLC [TMEM192] | 2.78 ± 0.58 | 2.3 ± 0.48 |  |  |
| IKALFRKGKVLAQQGEYSEAIPIL [FKBP8] | 2.54 ± 0.38 | 2.36 ± 0.42 |  |  |
| IKEVQKGGPADLAGLEDEDVIIEV [PDZK1] | 2.22 ± 0.27 | 2.49 ± 0.12 |  |  |
| ILDTAGTEQFTAMRDLYMKNGQGF [RAP1B] | 3.29 ± 0.36 | 3.46 ± 0.36 |  |  |
| ILREFEELHRRLDEEQQVLLSRLE [TRIM39] | 3.43 ± 0.3 | 3.63 ± 0.12 |  |  |
| IMPDGTIVTTVTTVQSRPRIDGKL [C2CD2L] | 3.31 ± 0.16 | 3.29 ± 0.39 |  |  |
| INHGAEVTCKDKKGYTPLHAAASN [ANKRD44] | 4.23 ± 0.16 | 4.2 ± 0.24 |  |  |
